Publication doi:10.1101/632075, “Determinants of FtsZ C-terminal linker-dependent regulation of cell wall metabolism in Caulobacter crescentus” (bioRxiv, 2019)

B1: Caulobacter crescentus FtsZ (natural protein, C. crescentus, UniProt B8H080 1-508, looked up)
chain: MAISLSAPRTTELKPRIVVFGVGGAGGNAVNNMIEAGLEGVEFVVANTDAQQLQFAKTDRRIQLGVQITQGLGAGAHPEVGMSAAEESFPEIGEHLDGAHMVFITAGMGGGTGTGAAPIIAKCARERGILTVGVVTKPFHFEGRHRMRLADSGIQELQRYVDTLIVIPNQNLFRVANERTTFAEAFGMADQVLHSGVRSITDLMVLPGLINLDFADVRTVMTEMGKAMMGTGEGTGEDRALMAAQNAIANPLLDEVSLKGAKAVLVNVTGGMDMTLLEVDEAANAISDQVDPEANIIFGAAFDPSLEGVIRVSVVATGMDGASIAQIEPKPVSRNISAAPLIAETSRPAPQPEPARPTARYEAARPAERPVAFAPEPAPEPEIVMSAPQPEPEAELYYDEPTVAEEPRVSAAPARSVNRIVDPLVDDVAEEPLFPENNYYEERRPQKQGGFFSMFGGGRQRYEQQASAPQAQARSAQSARPQLQPIETPQADDAEDLEIPSFLRRLAN
notes: FtsZ of Caulobacter crescentus, wild type; regions: GTPase domain, C-terminal linker (CTL), C-terminal conserved peptide (CTC); No tag is named; also called CcFtsZ; WT FtsZ; source: E. coli Rosetta(DE3)pLysS, pET21 vector, purified (anion exchange, ammonium sulfate precipitation, SEC)
B2: Escherichia coli FtsZ (natural protein, E. coli, UniProt P0A9A6 1-383, looked up)
chain: MFEPMELTNDAVIKVIGVGGGGGNAVEHMVRERIEGVEFFAVNTDAQALRKTAVGQTIQIGSGITKGLGAGANPEVGRNAADEDRDALRAALEGADMVFIAAGMGGGTGTGAAPVVAEVAKDLGILTVAVVTKPFNFEGKKRMAFAEQGITELSKHVDSLITIPNDKLLKVLGRGISLLDAFGAANDVLKGAVQGIAELITRPGLMNVDFADVRTVMSEMGYAMMGSGVASGEDRAEEAAEMAISSPLLEDIDLSGARGVLVNITAGFDLRLDEFETVGNTIRAFASDNATVVIGTSLDPDMNDELRVTVVATGIGMDKRPEITLVTNKQVQQPVMDRYQQHGMAPLTQEQKPVAKVVNDNAPQTAKEPDYLDIPAFLRKQAD
notes: FtsZ of Escherichia coli, wild type; No tag is named; also called EcFtsZ; source: E. coli Rosetta(DE3)pLysS, pET21 vector, purified (anion exchange, ammonium sulfate precipitation, SEC)

Target: the molecule itself
Assay: negative-stain transmission electron microscopy of polymers; 4 µM protein with 2 mM GTP for 16 minutes in 50 mM HEPES-KOH pH 7.2, 300 mM KCl, 10 mM MgCl2, 0.1 mM EDTA; spotted on carbon coated grids, uranyl formate stain

Protein	binding result
B1	binds
B2	binds
